assay: label from the status in PepcDB records

**Q.** Which protein production does the source give for “MIVEERIYRIRGGKMQEYLKLVREEGIAIQAPILGNLIGYFVTDIGPLSQVIHMWGYASLDDRAERRGKLAEDQRWQAFIPRLSVLIESSENRILLPTDFSPLR” here?
**A.** Its protein production is “not failed”.

**Q.** Which protein production does the source give for “MIVITGASSGLGAELAKLYDAEGKATYLTGRSESKLSTVTNCLSNNVGYRACDLASHQEVEQLFEQLDSIPSTVVHSAGSGYFGPLEKQDPDQIQTLIENNLSSAINVLRELVKRYKDQPVNVVMIMSTAAQQPKAQESTYCAVKWAVKGLIESVRLELKGKPMKIIAVYPGGMATEFWETSGKSLDTSSFMSAEDAALMILGALANIGNGYVSDITVNRL” here?
**A.** Its protein production is “failed”.

**Q.** Which protein production does the source give for “MIVLGHRGYSAKYLENTLEAFMKAIEAGANGVELDVRLSKDGKVVVSHDEDLKRLFGLDVKIRDATVSELKELTDGKITTLKEVFENVSDDKIINIEIKEREAADAVLEISKKRKNLIFSSFDLDLLDEKFKGTKYGYLIDEENYGSIENFVERVEKERPYSLHVPYQAFELEYAVEVLRSFRKKGIVIFVWTLNDPEIYRKIRREIDGVITDEVELFVKLR” here?
**A.** Its protein production is “not failed”.

**Q.** Which protein production does the source give for “MIVSITLLILAVGVFAIILARFIRIPYTLLLVVLGFFLSLFTVAFGIDTGVRASNFQDLMLFILLPVLIFEAAFALNSKLLFKYLPNVLTLATLGLIISTLVIAVFLYFGIAHSGFPFIAALLTGVVISATDPVAVVGQLKALKAPDDLNVLIEGESLFNDATAIVLFSIILSIALGQSEPDLTSAIITFSKVFFGGIIVGSVFGYIAALLVKIIDTSVPHMVVITLFLAYGTFYIAEHLFHVSGIVAVMFAALLFKKSAQDQLKDVHTGLHNIWESLGFIANIFVFVLLGLVVSLNMFTQMWLAIILAIVGAFIARVIAVYCSVWLNQVIVGQPINRKYPPIMIWGGLRGAVTIALVLSLPTELPYWWTIQSIGFGIVLFTLIVQATTTPLLVKKLNI” here?
**A.** The protein production was “failed”.

**Q.** With “MIVSKRTFRSLYIPILIEQLFILIMGQADTLMLNSYSTDAVAASGMISQILMLITFLITIIHVGTNIRIVHLKEHQPSSISQEIYHNLLFNSIVSIVFTIVIGIAFELILRLFQVPQDIFKLTYQFGMIILSVLTLTTCHMYIGTVLRVMNHASSATRITIISNVTNIILNGIVLFIIPQYVGNPVLGVAVVTAFSRLLGCTLALIALIQIFRPFKHYFKLSWKKIYQVSTLGIPTAGEQISYNFAQTFTTAFIAMLGTQVIAAKSVSTVLSGLSFSCAMAFSAASQIYLGKFISRRRYRTLKKVVIKSIWFNITQSFMIMTCVFIGFIVCGRWITHDIQTYHLIIYYLVILFGLEPIRAINNLIVDLLNVTGDVRYPVTVSVVTTWLLLLPGSYLLGIHWRLGYTGIILVSIADEALRFIIMYLRWRNDRWQARMKQIGV” as the sequence, how does the protein production read?
**A.** Its protein production is “failed”.

**Q.** For “MIVVKVGGAEGINYEAVAKDAASLWKEGVKLLLVHGGSAETNKVAEALGHPPRFLTHPGGQVSRLTDRKTLEIFEMVYCGLVNKRLVELLQKEGANAIGLSGLDGRLFVGRRKTAVKYVENGKVKVHRGDYTGTVEEVNKALLDLLLQAGYLPVLTPPALSYENEAINTDGDQIAALLATLYGAEALVYLSNVPGLLARYPDEASLVREIPVERIEDPEYLALAQGRMKRKVMGAVEAVKGGVKRVVFADGRVENPIRRALSGEGTVVR”, which protein production is on record?
**A.** The protein production was “not failed”.

**Q.** Which protein production does the source give for “MIVVTGATGNIGRPLTRALAEAGEQVTAVSRHPAAVPDGVRHLVADLAEPAGLRPALTGAKSLFLLLSGDLHALGANPADLIGEAARSGVRRVVLLSTLGVVTRPFGATRIAMRELEDTLRESGLEWAVLRPGGFASNALWWAESVRARRVVAAPFGDVGVPVVDPADIAAVAAACLLEDRHTGGAYELTGPEVITPRGQTEAIAAALGAPVAFHELTREEARTAMARSMPAELADDTLDILGNPSPAELRVSPDIERVLGRAPRPFADWAARNADAFR” here?
**A.** Its protein production is “failed”.

**Q.** With “MIWILASLIAGIALRAWSVFILPLAYIIGRRNRDLGLLTYFLYGVLLVREVFVRDLISEEAFVSLGLLVPSVLALREIGEEFRVDVRGLVGLGVMSLGFIYKPALVLGVIITGISSIPWIELSILTLLFLVSYVAREHQELVVVGFVLVMSILLAKPIERREMRVKSGRGF” as the sequence, how does the protein production read?
**A.** Its protein production is “failed”.

**Q.** Which protein production does the source give for “MIWIVGSGTCRGQTTERAKEIIERAEVIYGSRRALELAGVVDDSRARILRSFKGDEIRRIMEEGREREVAVISTGDPMVAGLGRVLREIAEDVEIKIEPAISSVQVALARLKVDLSEVAVVDCHAKDFDAELTELLKYRHLLILADSHFPLERLGKRRVVLLENLCMEGERIREGNADSIELESDYTIIFVEREVME” here?
**A.** Its protein production is “not failed”.

**Q.** Which protein production does the source give for “MIYEGAVFRPPSEASSLILQVSLGCRHNQCTFCSMYKGKSFRIRSIEEIMDMIDAGSKAYPHMERIFLADGDALAVETDVLSNVLETLYQRFPRLKRVGIYGGPKDILEKSPAELARLKEQGLSIVYLGVESGSGLILNLIRKGVTPEEMINAGQKVVASGLKLSCTIILGLGGRERSPEHAVETGKVISAINPHYLGALTLMLAPDAPLTQKIKSGEFTPLNKWESLIELELMVQGLNLKDCLFRSNHASNYLPLKAHLPHDKATLLSTLKEVIEENREEVLRPEYWRGL” here?
**A.** The protein production was “failed”.

**Q.** Which protein production does the source give for “MIYEPAEDSELLLEAALRELKPDDEVIEVGAGSGFVAERLKGKCKCILTTDISPFAAMELRRKGLDVVMTDIAKGIRKKFSLVLFNPPYVELEDELRRGDWLDVAIDGGKKGVKVIKKFLDSLDEIMAERGRAILIASSQNEPDVFDLIDERGFRYEIVGERGLFFEKLFAIKIWKE” here?
**A.** The protein production was “failed”.

**Q.** With “MKADILLVSHSKMITDGIKEMIEQMNASEEITIHSLGGTSDGSLGSDPMKIIDTINEADSDREFLIFADLGSAVLSSELAFDMLEEDQQKHYHLVDAPLVEGAFASAITAGVSDDLTQILAEAQNAGKKGWN” as the sequence, how does the protein production read?
**A.** The protein production was “not failed”.

**Q.** For “MKAEFEEASGLTAGNPVRMKGVNVGSVESIRLNQETQTVRARLRIEEGIRIPEGSHAKVAGFSGIGGVRISILPGPRENPPLPPDATLSAPPEGSVFDRLTDQAPALANKADSVLTSTNTTMSALSTQLQDPDSDLRQALTSAKNITGDLESVTEAEKETLRALLQNLQSVSSDLDTFMGENGDSLDVAVRRLNESLDRLNRGLASLEQTSATLDTVATKLNEGDGTAGRLLNDPSLYLRLDSAAARTNTLLQDFQRDPGRYLNDMTLVKVF”, which protein production is on record?
**A.** The protein production was “failed”.

**Q.** For “MKAGYETMTPEELRRLTATHDEADYEIVDVREPAEYRQGHLPGAKHIPVGEVEARLDELVPGRTHIFYCRSGARSRAALTFAVESGLTLGPLYDLAGGILAWDGHTVPDEPRLATFAHVSDMRSLLLRAIDMEKAVHGLYTRVRAASGRPVVCELMDRLVGVEVAHARVIYRELRKWWAAADGELPPFETLFETLEGRVLEGGRSVDELEPWIRSASTGDCHEVADLALELEFAAYDLYRTLADEAVQGSGLGEDAARVFLDLASQEKAHARMIVAAMARFGEEGADATA”, which protein production is on record?
**A.** The protein production was “failed”.

**Q.** For “MKALFFTRMFTLMVSCLMYLSIVKEDNWFGYVFIAAGAAMYAANHVLLTKETNAIWFCLIDIAIGFSFGFIFPGTGLFIIMLCPVAVAFFLRGFPKRTAWSVLCLSSILFLTVLIRTYAMFGNEFVIDHLTSMTFVVFCGVVGKLIRKLLDAQDTAKQQFQELTESHLALSAAHQELHLYAKQVEELTAIYERNRMAREIHDTVGHKMTALLVQLQLLREWQKRDSQKADETVGVCETLAREALDDVRLSVRTLQTENDPSLIESLKQLTEDFCKNAGVTTEFAVSGDPAIIPLSLHPTLIRTVQEALTNAKRHGGAAACSIQLACTTDSISLVIKDDGKGNPEAALGFGLLNMKKRAAEHGGMIRFESERDQGFTVNAEFSLANKKWSFGPVQQKESLS”, which protein production is on record?
**A.** The protein production was “failed”.

**Q.** For “MKALHFGAGNIGRGFIGKLLADAGIQLTFADVNQVVLDALNARHSYQVHVVGETEQVDTVSGVDAVSSIGDDVVDLIAQVDLVTTAVGPVVLERIAPAIAKGLVKRKEQGNESPLNIIACENMVRGTTQLKGHVMNALPEDAKAWVEEHVGFVDSAVDRIVPPSASATNDPLEVTVETFSEWIVDKTQFKGALPNIPGMELTDNLMAFVERKLFTLNTGHAITAYLGKLAGHQTIRDAILDEKIRAVVKGAMEESGAVLIKRYGFDADKHAAYIQKILGRFENPYLKDDVERVGRQPLRKLSAGDRLIKPLLGTLEYSLPHKNLIQGIAGAMHFRSEDDPQAQELAALIADKGPQAALAQISDLDANSEVVSEAVTAYKAMQ”, which protein production is on record?
**A.** The protein production was “failed”.

**Q.** Which protein production does the source give for “MKALVVSDDINFLKQACTLVNGKAEYDAVYVGEGRVSGVGASTLYTVKKGTPYDAVADGILEIMGNYDIIVAGSTEFGREVAGYIAGKTGYYAATEIFSLEFSNGKAKTKRFFYGGKTVIEEESDAKVFTVAPGVIEAKEFESKPEEKDLPIKPSKVRVNKVVPKNAGGVR” here?
**A.** Its protein production is “failed”.

Source: a protein production outcome set (Wang et al. 2014)
